B1: EccB5 of the ESX-5 type VII secretion system of M. tuberculosis H37Rv (natural protein)
chain: MAEESRGQRGSGYGLGLSTRTQVTGYQFLARRTAMALTRWRVRMEIEPGRRQTLAVVASVSAALVICLGALLWSFISPSGQLNESPIIADRDSGALYVRVGDRLYPALNLASARLITGRPDNPHLVRSSQIATMPRGPLVGIPGAPSSFSPKSPPASSWLVCDTVATSSSIGSLQGVTVTVIDGTPDLTGHRQILSGSDAVVLRYGGDAWVIREGRRSRIEPTNRAVLLPLGLTPEQVSQARPMSRALFDALPVGPELLVPEVPNAGGPATFPGAPGPIGTVIVTPQISGPQQYSLVLGDGVQTLPPLVAQILQNAGSAGNTKPLTVEPSTLAKMPVVNRLDLSAYPDNPLEVVDIREHPSTCWWWERTAGENRARVRVVSGPTIPVAATEMNKVVSLVKADTSGRQADQVYFGPDHANFVAVTGNNPGAQTSESLWWVTDAGARFGVEDSKEARDALGLTLTPSLAPWVALRLLPQGPTLSRADALVEHDTLPMDMTPAELVVPK
B2: EccC5 ATPase of the ESX-5 type VII secretion system of M. tuberculosis H37Rv (natural protein)
chain: MKRGFARPTPEKPPVIKPENIVLSTPLSIPPPEGKPWWLIVVGVVVVGLLGGMVAMVFASGSHVFGGIGSIFPLFMMVGIMMMMFRGMGGGQQQMSRPKLDAMRAQFMLMLDMLRETAQESADSMDANYRWFHPAPNTLAAAVGSPRMWERKPDGKDLNFGVVRVGVGMTRPEVTWGEPQNMPTDIELEPVTGKALQEFGRYQSVVYNLPKMVSLLVEPWYALVGEREQVLGLMRAIICQLAFSHGPDHVQMIVVSSDLDQWDWVKWLPHFGDSRRHDAAGNARMVYTSVREFAAEQAELFAGRGSFTPRHASSSAQTPTPHTVIIADVDDPQWEYVISAEGVDGVTFFDLTGSSMWTDIPERKLQFDKTGVIEALPRDRDTWMVIDDKAWFFALTDQVSIAEAEEFAQKLAQWRLAEAYEEIGQRVAHIGARDILSYYGIDDPGNIDFDSLWASRTDTMGRSRLRAPFGNRSDNGELLFLDMKSLDEGGDGPHGVMSGTTGSGKSTLVRTVIESLMLSHPPEELQFVLADLKGGSAVKPFAGVPHVSRIITDLEEDQALMERFLDALWGEIARRKAICDSAGVDDAKEYNSVRARMRARGQDMAPLPMLVVVIDEFYEWFRIMPTAVDVLDSIGRQGRAYWIHLMMASQTIESRAEKLMENMGYRLVLKARTAGAAQAAGVPNAVNLPAQAGLGYFRKSLEDIIRFQAEFLWRDYFQPGVSIDGEEAPALVHSIDYIRPQLFTNSFTPLEVSVGGPDIEPVVAQPNGEVLESDDIEGGEDEDEEGVRTPKVGTVIIDQLRKIKFEPYRLWQPPLTQPVAIDDLVNRFLGRPWHKEYGSACNLVFPIGIIDRPYKHDQPPWTVDTSGPGANVLILGAGGSGKTTALQTLICSAALTHTPQQVQFYCLAYSSTALTTVSRIPHVGEVAGPTDPYGVRRTVAELLALVRERKRSFLECGIASMEMFRRRKFGGEAGPVPDDGFGDVYLVIDNYRALAEENEVLIEQVNVIINQGPSFGVHVVVTADRESELRPPVRSGFGSRIELRLAAVEDAKLVRSRFAKDVPVKPGRGMVAVNYVRLDSDPQAGLHTLVARPALGSTPDNVFECDSVVAAVSRLTSAQAPPVRRLPARFGVEQVRELASRDTRQGVGAGGIAWAISELDLAPVYLNFAENSHLMVTGRRECGRTTTLATIMSEIGRLYAPGASSAPPPAPGRPSAQVWLVDPRRQLLTALGSDYVERFAYNLDGVVAMMGELAAALAGREPPPGLSAEELLSRSWWSGPEIFLIVDDIQQLPPGFDSPLHKAVPFVNRAADVGLHVIVTRTFGGWSSAGSDPMLRALHQANAPLLVMDADPDEGFIRGKMKGGPLPRGRGLLMAEDTGVFVQVAATEVRR
B3: MycP5 protease (mycosin) of the ESX-5 type VII secretion system of M. tuberculosis H37Rv (enzyme)
chain: ISPPTIDPGALPPDGPPGPLAPMKQNAYCTEVGVLPGTDFQLQPKYMEMLNLNEAWQFGRGDGVKVAVIDTGVTPHPRLPRLIPGGDYVMAGGDGLSDCDAHGTLVASMIAAVPANGAVPLPSVPRRPVTIPTTETPPPPQTVTLSPVPPQTVTVIPAPPPEEGVPPGAPVPGPEPPPAPGPQPPAVDRGGGTVTVPSYSGGRKIAPIDNPRNPHPSAPSPALGPPPDAFSGIAPGVEIISIRQSSQAFGLKDPYTGDEDPQTAQKIDNVETMARAIVHAANMGASVINISDVMCMSARNVIDQRALGAAVHYAAVDKDAVIVAAAGDGSKKDCKQNPIFDPLQPDDPRAWNAVTTVVTPSWFHDYVLTVGAVDANGQPLSKMSIAGPWVSISAPGTDVVGLSPRDDGLINAIDGPDNSLLVPAGTSFSAAIVSGVAALVRAKFPELSAYQIINRLIHTARPPARGVDNQVGYGVVDPVAALTWDVPKGPAEPPKQLSAPLVVPQPPAPRDMVPIWVAAGGLAGALLIGGAVFGTATLMRRSRKQQ
B4: EccD5 of the ESX-5 type VII secretion system of M. tuberculosis H37Rv (natural protein)
chain: MTAVADAPQADIEGVASPQAVVVGVMAGEGVQIGVLLDANAPVSVMTDPLLKVVNSRLRELGEAPLEATGRGRWALCLVDGAPLRATQSLTEQDVYDGDRLWIRFIADTERRSQVIEHISTAVASDLSKRFARIDPIVAVQVGASMVATGVVLATGVLGWWRWHHNTWLTTIYTAVIGVLVLAVAMLLLMRAKTDADRRVADIMLMSAIMPVTVAAAAAPPGPVGSPQAVLGFGVLTVAAALALRFTGRRLGIYTTIVIIGALTMLAALARMVAATSAVTLLSSLLLICVVAYHAAPALSRRLAGIRLPVFPSATSRWVFEARPDLPTTVVVSGGSAPVLEGPSSVRDVLLQAERARSFLSGLLTGLGVMVVVCMTSLCDPHTGQRWLPLILAGFTSGFLLLRGRSYVDRWQSITLAGTAVIIAAAVCVRYALELSSPLAVSIVAAILVLLPAAGMAAAAHVPHTIYSPLFRKFVEWIEYLCLMPIFPLALWLMNVYAAIRYR

The data set deals with the molecule itself. Put plainly: cryo-EM structure.
On to B1, for which the stoichiometry N (in general, the number of molecules, sites or subunits per partner or assembly) stood at 6.

Take B2: the “stoichiometry N” value turned out to be 2.

For B3, the “stoichiometry N” value is 3.

For B4, the “stoichiometry N” value is 2.

The values above are taken from doi:10.1101/2020.12.02.408906 (bioRxiv, 2020).
